Results on one sequence are retold here after US20110301073.

Data set [1] concerns TALE repeat framework V6A (SEQ 76) repeat 5: V6A (Xanthomonas sp. (engineered)). The following applies: average of 3 experiments.
In data set [2] the test system is TALE repeat framework Q23K (SEQ 415) repeat 5: Q23K (Xanthomonas sp. (engineered)). The following applies: average of 3 experiments.
In data set [3] the test system is TALE repeat framework Q23R (SEQ 414) repeat 5: Q23R (Xanthomonas sp. (engineered)). The conditions noted are these: average of 3 experiments.
The test system of data set [4] is TALE repeat framework L26A (SEQ 420) repeat 5: L26A (Xanthomonas sp. (engineered)). The conditions noted are these: average of 3 experiments.
Data set [5] has as its system TALE repeat framework S11A (SEQ 409) repeat 5: S11A (Xanthomonas sp. (engineered)). The conditions noted are these: average of 3 experiments.
The test system of data set [6] is TALE repeat framework A8T (SEQ 405) repeat 5: A8T (Xanthomonas sp. (engineered)). The following applies: average of 3 experiments.
The subject of data set [7] is TALE repeat framework T2S/P3T/D4A/T21A/Q23R/R24A (SEQ 425) repeat 5: T2S,P3T,D4A,T21A,Q23R,R24A (Xanthomonas sp. (engineered)). The conditions noted are these: average of 3 experiments.
Data set [8] concerns TALE repeat framework T21A/Q23R/R24A (SEQ 423) repeat 5: T21A,Q23R,R24A (Xanthomonas sp. (engineered)). The conditions noted are these: average of 3 experiments.
Data set [9] concerns TALE repeat framework T2S/P3T/D4A (SEQ 424) repeat 5: T2S,P3T,D4A (Xanthomonas sp. (engineered)). The conditions noted are these: average of 3 experiments.
The subject of data set [10] is TALE repeat framework V22A (SEQ 412) repeat 5: V22A (Xanthomonas sp. (engineered)). The conditions noted are these: average of 3 experiments.
In data set [11] the test system is TALE repeat framework I9A (SEQ 406) repeat 5: I9A (Xanthomonas sp. (engineered)). The conditions noted are these: average of 3 experiments.
Data set [12] has as its system TALE repeat framework Q23A (SEQ 413) repeat 5: Q23A (Xanthomonas sp. (engineered)). The following applies: average of 3 experiments.
Data set [13] has as its system TALE test backbone, repeat 5 RVD HD, standard framework (SEQ 333) (Xanthomonas sp. (engineered)). The conditions noted are these: reference.

Take “TTGACCATCCT (double strand) [CCA target]”: the binding signal (normalized ELISA) in data set [1] was determined as 0.89; in data set [2], 0.92; in data set [3] it was 0.97; in [4], 1; in data set [5], 0.9; in [6] it was 0.82. The binding signal (normalized ELISA) stood at 0 in data set [7]; 1.42 in data set [8]; 0 in data set [9]; 0.7 in data set [10]; 0.62 in data set [11]; 0.91 in data set [12]. Besides, the binding signal (normalized ELISA) in [13] was 1.
